Laboratory results from US20240327497A1.
Where “and” joins values, the source holds several entries; their conditions need not be identical. Identical values can stand only once.

Each binder was assayed against canine FcRn (FcRn large subunit with canine beta-2-microglobulin) (canine) (assay: SPR pH 6.0, IgG coupled to CM5, FcRn 50-800 nM).

Kd [nM] | koff [s⁻¹] | kon [M⁻¹ s⁻¹] | Binder
5970 | 0.187 | 31400 | canine IgGA antibody with wild-type IgGA Fc and the variable domain of Gearing et al. 2013 (antibody, part only; not given: variable domains and light chain, not shown: another chain or arm of the molecule; small tags and cut ends) Fc: VPEPLGGPSVLIFPPKPKDILRITRTPEVTCVVLDLGREDPEVQISWFVDGKEVHTAKTQSREQQFNGTYRVVSVLPIEHQDWLTGKEFKCRVNHIDLPSPIERTISKARGRAHKPSVYVLPPSPKELSSSDTVSITCLIKDFYPPDIDVEWQSNGQQEPERKHRMTPPQLDEDGSYFLYSKLSVDKSRWQQGDPFTCAVMHETLQNHYTDLSLSHSPGK
767 | 0.0375 | 48900 | canine IgGA antibody, Fc variant A426Y, variable domain of Gearing et al. 2013 (antibody, part only; not given: Variable domains, not shown: another chain or arm of the molecule; small tags and cut ends) Fc: VPEPLGGPSVLIFPPKPKDILRITRTPEVTCVVLDLGREDPEVQISWFVDGKEVHTAKTQSREQQFNGTYRVVSVLPIEHQDWLTGKEFKCRVNHIDLPSPIERTISKARGRAHKPSVYVLPPSPKELSSSDTVSITCLIKDFYPPDIDVEWQSNGQQEPERKHRMTPPQLDEDGSYFLYSKLSVDKSRWQQGDPFTCYVMHETLQNHYTDLSLSHSPGK
1430 | 0.0591 | 41400 | canine IgGA antibody, Fc variant A426H, variable domain of Gearing et al. 2013 (antibody, part only; not given: Variable domains, not shown: another chain or arm of the molecule; small tags and cut ends) Fc: VPEPLGGPSVLIFPPKPKDILRITRTPEVTCVVLDLGREDPEVQISWFVDGKEVHTAKTQSREQQFNGTYRVVSVLPIEHQDWLTGKEFKCRVNHIDLPSPIERTISKARGRAHKPSVYVLPPSPKELSSSDTVSITCLIKDFYPPDIDVEWQSNGQQEPERKHRMTPPQLDEDGSYFLYSKLSVDKSRWQQGDPFTCHVMHETLQNHYTDLSLSHSPGK

What follows are binders tested against canine FcRn (FcRn large subunit with canine beta-2-microglobulin) (canine) (assay: SPR pH 5.5, SASA-Fc captured on BSA, FcRn 400 nM).

Kd | WT KD Avg/Variant KD | kon | koff | Binder
723 nM and 1670 nM | 0.78 and 0.34 | 234000 M⁻¹ s⁻¹ and 318000 M⁻¹ s⁻¹ | – | canine IgGB Fc (CH2-CH3) M428A with N-terminal SASA tag (Fc fusion, part only; not given: SASA tag, not shown: another chain or arm of the molecule; small tags and cut ends) Fc: APEMLGGPSVFIFPPKPKDTLLIARTPEVTCVVVDLDPEDPEVQISWFVDGKQMQTAKTQPREEQFNGTYRVVSVLPIGHQDWLKGKQFTCKVNNKALPSPIERTISKARGQAHQPSVYVLPPSREELSKNTVSLTCLIKDFFPPDIDVEWQSNGQQEPESKYRTTPPQLDEDGSYFLYSKLSVDKSRWQRGDTFICAVAHEALHNHYTQESLSHSPGK
447 nM and 298 nM | 1.27 and 1.9 | – | 0.166 s⁻¹ | canine IgGB Fc (CH2-CH3) T256A with N-terminal SASA tag (Fc fusion, part only; not given: SASA tag, not shown: another chain or arm of the molecule; small tags and cut ends) Fc: APEMLGGPSVFIFPPKPKDTLLIARAPEVTCVVVDLDPEDPEVQISWFVDGKQMQTAKTQPREEQFNGTYRVVSVLPIGHQDWLKGKQFTCKVNNKALPSPIERTISKARGQAHQPSVYVLPPSREELSKNTVSLTCLIKDFFPPDIDVEWQSNGQQEPESKYRTTPPQLDEDGSYFLYSKLSVDKSRWQRGDTFICAVMHEALHNHYTQESLSHSPGK
335 nM and 328 nM | 1.69 and 1.72 | – | – | canine IgGB Fc (CH2-CH3) T250A with N-terminal SASA tag (Fc fusion, part only; not given: SASA tag, not shown: another chain or arm of the molecule; small tags and cut ends) Fc: APEMLGGPSVFIFPPKPKDALLIARTPEVTCVVVDLDPEDPEVQISWFVDGKQMQTAKTQPREEQFNGTYRVVSVLPIGHQDWLKGKQFTCKVNNKALPSPIERTISKARGQAHQPSVYVLPPSREELSKNTVSLTCLIKDFFPPDIDVEWQSNGQQEPESKYRTTPPQLDEDGSYFLYSKLSVDKSRWQRGDTFICAVMHEALHNHYTQESLSHSPGK
292 nM and 240 nM | 1.94 and 2.36 | – | – | canine IgGB Fc (CH2-CH3) L252A with N-terminal SASA tag (Fc fusion, part only; not given: SASA tag, not shown: another chain or arm of the molecule; small tags and cut ends) Fc: APEMLGGPSVFIFPPKPKDTLAIARTPEVTCVVVDLDPEDPEVQISWFVDGKQMQTAKTQPREEQFNGTYRVVSVLPIGHQDWLKGKQFTCKVNNKALPSPIERTISKARGQAHQPSVYVLPPSREELSKNTVSLTCLIKDFFPPDIDVEWQSNGQQEPESKYRTTPPQLDEDGSYFLYSKLSVDKSRWQRGDTFICAVMHEALHNHYTQESLSHSPGK
325 nM and 338 nM | 1.74 and 1.67 | – | 1.23 s⁻¹ | canine IgGB Fc (CH2-CH3) P307A with N-terminal SASA tag (Fc fusion, part only; not given: SASA tag, not shown: another chain or arm of the molecule; small tags and cut ends) Fc: APEMLGGPSVFIFPPKPKDTLLIARTPEVTCVVVDLDPEDPEVQISWFVDGKQMQTAKTQPREEQFNGTYRVVSVLAIGHQDWLKGKQFTCKVNNKALPSPIERTISKARGQAHQPSVYVLPPSREELSKNTVSLTCLIKDFFPPDIDVEWQSNGQQEPESKYRTTPPQLDEDGSYFLYSKLSVDKSRWQRGDTFICAVMHEALHNHYTQESLSHSPGK
341 nM and 257 nM | 1.66 and 2.2 | – | 0.112 s⁻¹ | canine IgGB Fc (CH2-CH3) Q285A with N-terminal SASA tag (Fc fusion, part only; not given: SASA tag, not shown: another chain or arm of the molecule; small tags and cut ends) Fc: APEMLGGPSVFIFPPKPKDTLLIARTPEVTCVVVDLDPEDPEVQISWFVDGKQMATAKTQPREEQFNGTYRVVSVLPIGHQDWLKGKQFTCKVNNKALPSPIERTISKARGQAHQPSVYVLPPSREELSKNTVSLTCLIKDFFPPDIDVEWQSNGQQEPESKYRTTPPQLDEDGSYFLYSKLSVDKSRWQRGDTFICAVMHEALHNHYTQESLSHSPGK
464 nM and 569 nM | 1.22 and 0.99 | 422000 M⁻¹ s⁻¹ and 533000 M⁻¹ s⁻¹ | 0.196 s⁻¹ and 0.304 s⁻¹ | canine IgGB Fc (CH2-CH3) T286A with N-terminal SASA tag (Fc fusion, part only; not given: SASA tag, not shown: another chain or arm of the molecule; small tags and cut ends) Fc: APEMLGGPSVFIFPPKPKDTLLIARTPEVTCVVVDLDPEDPEVQISWFVDGKQMQAAKTQPREEQFNGTYRVVSVLPIGHQDWLKGKQFTCKVNNKALPSPIERTISKARGQAHQPSVYVLPPSREELSKNTVSLTCLIKDFFPPDIDVEWQSNGQQEPESKYRTTPPQLDEDGSYFLYSKLSVDKSRWQRGDTFICAVMHEALHNHYTQESLSHSPGK
393 nM and 876 nM | 1.44 and 0.65 | – | 0.407 s⁻¹ and 0.213 s⁻¹ | canine IgGB Fc (CH2-CH3) Y436A with N-terminal SASA tag (Fc fusion, part only; not given: SASA tag, not shown: another chain or arm of the molecule; small tags and cut ends) Fc: APEMLGGPSVFIFPPKPKDTLLIARTPEVTCVVVDLDPEDPEVQISWFVDGKQMQTAKTQPREEQFNGTYRVVSVLPIGHQDWLKGKQFTCKVNNKALPSPIERTISKARGQAHQPSVYVLPPSREELSKNTVSLTCLIKDFFPPDIDVEWQSNGQQEPESKYRTTPPQLDEDGSYFLYSKLSVDKSRWQRGDTFICAVMHEALHNHATQESLSHSPGK
422 nM and 548 nM | 1.34 and 1.03 | – | 0.134 s⁻¹ | canine IgGB Fc (CH2-CH3) K315A with N-terminal SASA tag (Fc fusion, part only; not given: SASA tag, not shown: another chain or arm of the molecule; small tags and cut ends) Fc: APEMLGGPSVFIFPPKPKDTLLIARTPEVTCVVVDLDPEDPEVQISWFVDGKQMQTAKTQPREEQFNGTYRVVSVLPIGHQDWLAGKQFTCKVNNKALPSPIERTISKARGQAHQPSVYVLPPSREELSKNTVSLTCLIKDFFPPDIDVEWQSNGQQEPESKYRTTPPQLDEDGSYFLYSKLSVDKSRWQRGDTFICAVMHEALHNHYTQESLSHSPGK
368 nM and 370 nM | 1.54 and 1.53 | 2.43e+06 M⁻¹ s⁻¹ and 1.34e+06 M⁻¹ s⁻¹ | 0.894 s⁻¹ and 0.496 s⁻¹ | canine IgGB Fc (CH2-CH3) Q311A with N-terminal SASA tag (Fc fusion, part only; not given: SASA tag, not shown: another chain or arm of the molecule; small tags and cut ends) Fc: APEMLGGPSVFIFPPKPKDTLLIARTPEVTCVVVDLDPEDPEVQISWFVDGKQMQTAKTQPREEQFNGTYRVVSVLPIGHADWLKGKQFTCKVNNKALPSPIERTISKARGQAHQPSVYVLPPSREELSKNTVSLTCLIKDFFPPDIDVEWQSNGQQEPESKYRTTPPQLDEDGSYFLYSKLSVDKSRWQRGDTFICAVMHEALHNHYTQESLSHSPGK

Second part, the binder before the results:

Binder | Kd | WT KD Avg/Variant KD | kon | koff
canine IgGB Fc (CH2-CH3) G309A with N-terminal SASA tag (Fc fusion, part only; not given: SASA tag, not shown: another chain or arm of the molecule; small tags and cut ends) Fc: APEMLGGPSVFIFPPKPKDTLLIARTPEVTCVVVDLDPEDPEVQISWFVDGKQMQTAKTQPREEQFNGTYRVVSVLPIAHQDWLKGKQFTCKVNNKALPSPIERTISKARGQAHQPSVYVLPPSREELSKNTVSLTCLIKDFFPPDIDVEWQSNGQQEPESKYRTTPPQLDEDGSYFLYSKLSVDKSRWQRGDTFICAVMHEALHNHYTQESLSHSPGK | 245 nM and 294 nM | 2.31 and 1.92 | – | –
canine IgGB Fc (CH2-CH3) I308A with N-terminal SASA tag (Fc fusion, part only; not given: SASA tag, not shown: another chain or arm of the molecule; small tags and cut ends) Fc: APEMLGGPSVFIFPPKPKDTLLIARTPEVTCVVVDLDPEDPEVQISWFVDGKQMQTAKTQPREEQFNGTYRVVSVLPAGHQDWLKGKQFTCKVNNKALPSPIERTISKARGQAHQPSVYVLPPSREELSKNTVSLTCLIKDFFPPDIDVEWQSNGQQEPESKYRTTPPQLDEDGSYFLYSKLSVDKSRWQRGDTFICAVMHEALHNHYTQESLSHSPGK | 472 nM and 563 nM | 1.2 and 1 | 357000 M⁻¹ s⁻¹ and 345000 M⁻¹ s⁻¹ | 0.169 s⁻¹ and 0.194 s⁻¹
canine IgGB Fc (CH2-CH3) D378A with N-terminal SASA tag (Fc fusion, part only; not given: SASA tag, not shown: another chain or arm of the molecule; small tags and cut ends) Fc: APEMLGGPSVFIFPPKPKDTLLIARTPEVTCVVVDLDPEDPEVQISWFVDGKQMQTAKTQPREEQFNGTYRVVSVLPIGHQDWLKGKQFTCKVNNKALPSPIERTISKARGQAHQPSVYVLPPSREELSKNTVSLTCLIKDFFPPDIAVEWQSNGQQEPESKYRTTPPQLDEDGSYFLYSKLSVDKSRWQRGDTFICAVMHEALHNHYTQESLSHSPGK | 673 nM and 592 nM | 0.84 and 0.96 | 272000 M⁻¹ s⁻¹ and 306000 M⁻¹ s⁻¹ | 0.183 s⁻¹ and 0.181 s⁻¹
canine IgGB Fc (CH2-CH3) H433A with N-terminal SASA tag (Fc fusion, part only; not given: SASA tag, not shown: another chain or arm of the molecule; small tags and cut ends) Fc: APEMLGGPSVFIFPPKPKDTLLIARTPEVTCVVVDLDPEDPEVQISWFVDGKQMQTAKTQPREEQFNGTYRVVSVLPIGHQDWLKGKQFTCKVNNKALPSPIERTISKARGQAHQPSVYVLPPSREELSKNTVSLTCLIKDFFPPDIDVEWQSNGQQEPESKYRTTPPQLDEDGSYFLYSKLSVDKSRWQRGDTFICAVMHEALANHYTQESLSHSPGK | 266 nM and 359 nM | 2.13 and 1.58 | – | 0.229 s⁻¹ and 0.0997 s⁻¹
canine IgGB Fc (CH2-CH3) A254S with N-terminal SASA tag (Fc fusion, part only; not given: SASA tag, not shown: another chain or arm of the molecule; small tags and cut ends) Fc: APEMLGGPSVFIFPPKPKDTLLISRTPEVTCVVVDLDPEDPEVQISWFVDGKQMQTAKTQPREEQFNGTYRVVSVLPIGHQDWLKGKQFTCKVNNKALPSPIERTISKARGQAHQPSVYVLPPSREELSKNTVSLTCLIKDFFPPDIDVEWQSNGQQEPESKYRTTPPQLDEDGSYFLYSKLSVDKSRWQRGDTFICAVMHEALHNHYTQESLSHSPGK | 340 nM and 317 nM | 1.66 and 1.78 | – | –

What follows are binders tested against canine FcRn (FcRn large subunit with canine beta-2-microglobulin) (canine) (assay: SPR pH 5.5, SASA-Fc captured on BSA, FcRn 100-800 nM).

Kd [nM] | koff [s⁻¹] | kon [M⁻¹ s⁻¹] | Binder
247 | 0.102 | 411000 | canine IgGB Fc (CH2-CH3) N434H with N-terminal SASA tag (Fc fusion, part only; not given: SASA tag, not shown: another chain or arm of the molecule; small tags and cut ends) Fc: APEMLGGPSVFIFPPKPKDTLLIARTPEVTCVVVDLDPEDPEVQISWFVDGKQMQTAKTQPREEQFNGTYRVVSVLPIGHQDWLKGKQFTCKVNNKALPSPIERTISKARGQAHQPSVYVLPPSREELSKNTVSLTCLIKDFFPPDIDVEWQSNGQQEPESKYRTTPPQLDEDGSYFLYSKLSVDKSRWQRGDTFICAVMHEALHHHYTQESLSHSPGK
